Measurements from publication PMC7145421.

Biological target: PKR (endogenous) (UniProt Q03963)
Experiment: FLAG co-immunoprecipitation, western blot
Settings: reference: FLAG-WT PACT; sites S246

- binding against the reference: weaker
Substance: PACT (FLAG-tagged wild type and mutant constructs) (from UniProt O75569) FLAG-S246A PACT
